Measurements reported in patent US6964763B1, “Methods and compositions for inhibiting HIV infectivity and blocking chemokine activity” (priority 1997, dated 2005).

Key:
[1] = system: CD4-gp120 complex formation; test: Competitive inhibition of 125I-CD4 binding to immobilized gp120; set-up: species or system HIV-1 (MN and LAI isolates); conditions: 10-fold molar excess (0.5 μM) competitor, 50 nM 125I-CD4, MN and LAI gp120
Experimental: FIG. 5 is a graph showing competitive inhibition of ^125I-CD4 binding to gp120. […] Samples were incubated, and bound TSP1 was measured as in FIG. 2. A single data set of triplicate samples (η=3, error as SD) is shown.
Radiolabeling was performed with Na[^125I]
These observations support a role for salivary TSP1 as a direct inhibitor of HIV infectivity.

[2] = biological target: recombinant HIV-1 gp160 (gp120 non-covalently linked to gp41) (Human immunodeficiency virus type 1 group M subtype B, UniProt P03375); conditions: 10-fold molar excess (0.5 μM) unlabeled competitor, 50 nM 125I-TSP1
Experimental: Increasing concentrations of soluble ^125I-labeled TSP1 (1 nM-μM) were added to immobilized recombinant HIV-1 gp160 for 3 hours at 22° C., and bound TSP1 measured after extensive washing. Non-linear curve fit was generated with Excell™ version 5.0. Apparent affinity was estimated from Scatchard analysis. (n=2; error calculated as standard deviation, SD).
A fixed concentration of ^125I-labeled TSP 1(50 nM) was added to immobilized rgp 160 in the absence or presence of 10-fold molar excess (0.5 μM) unlabeled TSP1, fusion protein LFP75-155 containing the LIMPII TSP binding domain (aa 75-155), or downstream fusion protein LFP 156-243. Samples were incubated, and bound TSP 1 was measured as in FIG. 2A. Plots represent single data sets of triplicate samples. (n=3, error as SD).
Briefly, TSP1 (5-10 μg/ml) or fusion proteins and peptides (10-20 μg/ml) were immobilized on detachable 96-well microtiter plate strips (Immulon-4 Remov-a-well, Dynatech Laboratories, Inc.), by overnight incubation at 4° C. in carbonate buffer (100 mM Na2CO3/1 mM MgCl2/0.02% NaN3, pH 9.8). Washed wells were blocked with 0.5% bovine serum albumin (“BSA”), then incubated in triplicate with soluble radiolabeled ligand for 2.5 hours at 37° C. After extensive washing in 50 mM Tris pH 7.5, 150 mM NaCl, 0.5% Tween-20 (TBS-Tween), bound radioactivity was quantified by gamma counter. Radiolabeling was performed with Na[^125I] […] Specific activity of Na[^125I] was determined for each experiment, ranging from 0.06-1.0 μCi/μg. Specific binding was determined as quenchable in the presence of excess unlabeled ligand, above background binding to BSA-coated wells.

[3] = system: HIV-1 isolate IIIB; test: HIV-1 infectivity assay, virus pre-incubated with TSP1 or saliva, p24 ELISA day 7; assay type: cell-based
Experimental: HIV-1 isolate IIIB was pre-incubated in the absence of TSP1, or with various concentrations of purified TSP1 for 1 hour at 37° C. Pre-incubated virus-TSP1 mixtures were added to target cells either directly (−), or first passed through 0.2 μm filters (+). Phorbol myrisate acetate (“PMA”) activated primary peripheral blood mononuclear cells (“PBMC”), SK23 (T-cell line) or U937 (promonocytic line) were inoculated with the multiplicities of infection (“moi”) indicated. After an additional 1 hour at 37° C., infected cells were washed, cultured for 7 days, and HIV-1 p24 antigen measured by ELISA. Inhibition is expressed for a single data set as percent of maximum p24 detected in the absence of TSP1.
PMA-stimulated primary PBMC were infected with 0.02 moi HIV/IIIB that had been pre-incubated with TSP1 alone, or with LIMPII fusion protein LFP75-155 alone or in the presence of TSP1, and filtered prior to incubation as in FIG. 7. TSP-mediated inhibition is expressed as percent decrease in p24 relative to maximum p24 detected in the absence of TSP 1. Data shown represent the average of two independent experiments (error as SD). […]

B1: CFP67-157: GST fusion protein containing the TSP1 binding domain of CD36 (aa 67-157) (protein)
chain: IFDVQNPQEVMMNSSNIQVKQRGPYTYRVRFLAKENVTQDAEDNTVSFLQPNGAIFEPSLSVGTEADNFTVLNLAVAAASHIYQNQFVQMI
modifications: left off: a dimerising Fc or GST
For B1, the “inhibition of 125I-CD4 binding to immobilized gp120” value (“inhibition of 125I-CD4 binding” below) [1] was roughly 89%.

B2: LFP75-155: GST fusion protein containing the LIMPII TSP binding domain (aa 75-155) (protein)
chain: ILRGETPRVEEVGPYTYRELRNKANIQFGDNGTTISAVSNKAYVFERDQSVGDPKIDLIRTLNIPVLTVIEWSQVHFLREI
modifications: left off: a dimerising Fc or GST
With B2 the “inhibition of 125I-CD4 binding” value [1] was roughly 89% and the “inhibition of 125I-TSP1 binding to gp160” value [2] was 47±14%.

B3: LIMPII peptide: LIMPII TSP-binding peptide, 10 kDa product purified after removal of GST moiety by proteolytic cleavage (protein)
chain: B2 chain
With B3 the “abrogation of the inhibitory effect of TSP1 by competitor” value ([3]; 1 μM LIMPII peptide, 50-100 μg/ml TSP1, PBMC, 0.02 moi) was 83-90% and the “decrease of HIV-1 infectivity, peptide alone” value ([3]; LIMPII peptide alone, PBMC) was 9%.

B4: LFP156-243: control GST fusion protein representing downstream LIMPII sequences (protein)
chain: IEAMLKAYQQKLFVTHTVDELLWGYKDEILSLIHVFRPDISPYFGLFYEKNGTNDGDYVFLTGEDSYLNFTKIVEWNGKTSLDWWITD
modifications: left off: a dimerising Fc or GST
In the case of B4, the “inhibition of 125I-CD4 binding” value [1] is reported as 32±5% and the “inhibition of 125I-TSP1 binding to gp160” value [2] is reported as “did not”.
